Measured values as given in patent publication US20240180962A1.

Biological target: CD20 on ARH-77 tumor cells (CD20+ plasma cell leukemia cell line, ATCC CRL-1621) (human) (UniProt P11836)
Assay: cell-based or functional assay

UniProt P11836, sequence (P11836 whole entry): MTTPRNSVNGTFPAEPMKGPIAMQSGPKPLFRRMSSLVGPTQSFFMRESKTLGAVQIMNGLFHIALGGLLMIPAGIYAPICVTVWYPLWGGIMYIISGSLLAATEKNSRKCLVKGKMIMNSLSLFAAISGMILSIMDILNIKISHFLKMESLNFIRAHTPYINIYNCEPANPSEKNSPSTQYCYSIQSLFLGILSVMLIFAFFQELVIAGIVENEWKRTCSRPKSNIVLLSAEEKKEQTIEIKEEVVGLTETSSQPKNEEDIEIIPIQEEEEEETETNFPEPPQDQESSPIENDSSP

Substance: obinutuzumab (antibody)
- AB-101 killing activity (ADCC, 4 hour caspase assay against ARH-77 cells): 66 fold
